{"source": "paper PMC11920050", "about": "(Nature Communications, 2025)", "target": "the molecule itself", "assay": "Western blot of cell lysate under non-denatured or denatured conditions"}
{"protein": "Flag-EGFP-tagged SPESP1 (equatorial segment protein 1) expressed in CHO-K1 cells (natural protein, mouse, UniProt Q9D5A0 19-399, looked up, O-GalNAc glycans (VVA-positive on blot); sites on this construct not stated) YPTITVLPDEEQNLNHYVHILQNLIMSVPTKEQDLGKKLSSSRTVDSAEPRSLASKVLLTPGLVSAQDVTPESDVLIRPVDETTNSRTRGFTLRRRRTQSTAFWSIRPNNISVVLRTEEPFIEKEPEPELESSRLPTEPEPELEPEPEPVAESRQMSEPEEELVTSTTPNKELTGTSRISSMATQPANTQATRITVTVKTTSTMDVSTDSEDVPQLSGQSEIPSAEDLPGRHSLNTRHEDILKKISNINAEIQQGLLGGNNSPEFKEFIKASREHLKRSLALAAAAEHKLEQMYGSNVFPEGRTSDPDNDMEMIINMLYNSRSKLSDYFNIKRVPSELREKASVVNAELRKILCVDQVEMQSLIKKLLSNNMKILNILNVP", "values": [{"measurement": "stoichiometry N", "value": 2}]}
